Measurements reported in patent US20250296971A1, “GASTRIC INHIBITORY PEPTIDE RECEPTOR LIGANDS” (priority 2021, published 2025).
*1 amine or outer side, *2 acyl side, *3 side chain or, on linkers, in order; H or OH if unused. Bridges are numbered along the chain shown (N, C = ends). Primed or numbered codes have the meaning given here. Where no end group is shown, it is not given here. Side-chain parts run from the residue outwards. [ ]: non-standard residue; d: D form. The star is where a group is joined. EuDOTA = DOTA europium complex, O=C([O-])CN1CCN(CC(=O)[O-])CCN(CC(=O)*)CCN(CC(=O)[O-])CC1.[Eu+3]; Ttds = 1,13-diamino-4,7,10-trioxatridecan-succinamic acid, NCCCOCCOCCOCCCNC(=O)CCC(=O)*; NOPO = NOPO chelator, O=C(CCP(=O)(O)CN1CCN(CP(=O)(O)CO)CCN(CP(=O)(O)CO)CC1)*; DOTA(In) = O=C1CN2CCN3CCN(CC(=O)*)CCN(CC2)CC(=O)[O][In]([O]1)[O]C(=O)C3; NH(1-deoxy-D-glucityl) = OC[C@@H](O)[C@@H](O)[C@H](O)[C@@H](O)CN*; (dE)(AGLU) = D-glutamic acid bearing 1-amino-1-deoxy-D-glucitol; dE(AGLU) = D-glutamic acid bearing 1-amino-1-deoxy-D-glucitol; Pro(trans-4-NH2) = O=C([C@@H]1C[C@@H](N[*:3])CN1[*:1])[*:2]; DOTA = O=C(O)CN1CCN(CC(=O)O)CCN(CC(=O)*)CCN(CC(=O)O)CC1; 2Lut = 2,6-lutidylidene bridge between two thiols; Trp(5-Cl) = N[C@@H](Cc1c[nH]c2ccc(Cl)cc12)C(=O)O; Pyridine(2,6-diCH2) = c1cc(C[*:1])nc(C[*:2])c1; APAc = 4-amino-1-carboxymethylpiperidine; Glutaryl = O=C(CCCC(=O)[*:2])[*:1]; AGLU = 1-amino-1-deoxy-D-glucitol; Hyp = O=C(O)[C@@H]1C[C@@H](O)CN1; dGlu(AGLU) = not defined here; Suc = O=C(CCC(=O)[*:2])[*:1]; 2Lut(3) = 2,6-lutidylidene; hSer = N[C@@H](CCO)C(=O)O; Api = NC1(C(=O)O)CCNCC1; Dab = NCC[C@H](N)C(=O)O; Thp = NC1(C(=O)O)CCOCC1

B1: DOTA-O2Oc-glu(AGLU)-Asp-Trp-5Clw-Tap-Glu-leu-[Cys(2Lut)-Apc(AGLU-Glutar)-Leu-Ile-Cys]-APAc-glu(AGLU)-NH2 (peptide)
peptide: DW[Trp(5-Cl)][Pro(trans-4-NH2)]E[dL]C[Api]([Glutaryl-NH(1-deoxy-D-glucityl)])LIC-{APAc-(dE)(AGLU)-NH2}
modifications: linker 7-11 via Pyridine(2,6-diCH2); not fully specified (N-terminus); printed as DOTA-O2Oc-glu(AGLU)-Asp-Trp-5Clw-Tap-Glu-leu-[Cys(2Lut)-Apc(AGLU-Glutar)-Leu-Ile-Cys]-APAc-glu(AGLU)-NH2
B2: AGLU-Glutar-APAc-Asp-Trp-5Clw-Tap-Glu-leu-[Cys(2Lut)-Apc(LuDOTA-glu(AGLU))-Leu-Ile-Cys]-APAc-glu(AGLU)-NH2 (peptide)
peptide: {AGLU-Glutaryl-APAc}-DW[Trp(5-Cl)][Pro(trans-4-NH2)]E[dL]C[Api]LIC-{APAc-dE(AGLU)-NH2}
modifications: linker 7-11 via Pyridine(2,6-diCH2); not fully specified (residue 8); also: DOTA complexed with Lu (LuDOTA)
B3: AGLU-Glutar-APAc-Asp-Trp-5Clw-Tap-Glu-leu-[Cys(2Lut)-Apc(InDOTA-glu(AGLU))-Leu-Ile-Cys]-APAc-glu(AGLU)-NH2 (peptide)
peptide: {AGLU-Glutaryl-APAc}-DW[Trp(5-Cl)][Pro(trans-4-NH2)]E[dL]C[Api]LIC-{APAc-dE(AGLU)-NH2}
modifications: linker 7-11 via Pyridine(2,6-diCH2); not fully specified (residue 8); also: DOTA complexed with In (InDOTA)

Target: human Gastric Inhibitory Peptide Receptor (human) (UniProt P48546)
Sequence (P48546 22-466 limits assumed): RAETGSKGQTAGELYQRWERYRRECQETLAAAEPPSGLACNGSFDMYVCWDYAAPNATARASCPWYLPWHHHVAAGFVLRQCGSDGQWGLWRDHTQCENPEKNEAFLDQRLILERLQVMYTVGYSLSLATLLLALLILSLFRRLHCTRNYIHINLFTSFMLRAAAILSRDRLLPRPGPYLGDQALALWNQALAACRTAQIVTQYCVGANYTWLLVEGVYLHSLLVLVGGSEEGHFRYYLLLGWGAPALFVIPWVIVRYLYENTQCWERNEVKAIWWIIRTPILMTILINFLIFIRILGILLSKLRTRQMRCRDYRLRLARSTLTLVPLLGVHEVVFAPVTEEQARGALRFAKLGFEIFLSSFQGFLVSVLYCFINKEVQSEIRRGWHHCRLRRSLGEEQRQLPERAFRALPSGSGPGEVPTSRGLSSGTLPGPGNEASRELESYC
Assay: FACS competition with GIP-057 on CHO-K1-hGIPR cells; pIC50 category A: >8.0

pIC50, > 8 pic50:
{AGLU-Glutaryl}-[hSer]W[Trp(5-Cl)][Pro(trans-4-NH2)]E[dL]C[Api](DOTA)LIC-{APAc-dE(AGLU)-NH2} (linker 7-11 via Pyridine(2,6-diCH2)) [AGLU-Glutar-Hse-Trp-5Clw-Tap-Glu-leu-[Cys(2Lut)-Apc(DOTA)-Leu-Ile-Cys]-APAc-glu(AGLU)-NH2]
Suc-W[Trp(5-Cl)][Hyp]E[dL]C[Api]([Glutaryl-NH(1-deoxy-D-glucityl)])LIC-{APAc-Lys(DOTA)-NH2} (linker 6-10 via Pyridine(2,6-diCH2)) [HO-Succinyl-Trp-5Clw-Hyp-Glu-leu-[Cys(2Lut)-Apc(AGLU-Glutar)-Leu-Ile-Cys]-APAc-Lys(DOTA)-NH2]
{AGLU-Glutaryl}-DW[Trp(5-Cl)][Pro(trans-4-NH2)]E[dL]C[Api](GaNODAGA)LIC-{APAc-dE(AGLU)-NH2} (linker 7-11 via Pyridine(2,6-diCH2)) [AGLU-Glutar-Asp-Trp-5Clw-Tap-Glu-leu-[Cys(2Lut)-Apc(GaNODAGA)-Leu-Ile-Cys]-APAc-glu(AGLU)-NH2]
{DOTA-Ttds}-DW[Trp(5-Cl)][Hyp]E[dL]C[Api](DOTA)LICK(DOTA)-NH2 (linker 7-11 via 2Lut(3)) [DOTA-Ttds-Asp-Trp-5Clw-Hyp-Glu-leu-[Cys(2Lut)-Apc(DOTA)-Leu-Ile-Cys]-Lys(DOTA)-NH2]
{AGLU-Glutaryl}-DW[Trp(5-Cl)][Pro(trans-4-NH2)]E[dL]C[Dab](DOTA)LIC-{APAc-dE(AGLU)-NH2} (linker 7-11 via Pyridine(2,6-diCH2)) [AGLU-Glutar-Asp-Trp-5Clw-Tap-Glu-leu-[Cys(2Lut)-Dab(DOTA)-Leu-Ile-Cys]-APAc-glu(AGLU)-NH2]
B1
B2
{DOTA-Ttds}-DW[Trp(5-Cl)][Hyp]E[dL]C[Thp]LICK(DOTA)-NH2 (linker 7-11 via 2Lut(3)) [DOTA-Ttds-Asp-Trp-5Clw-Hyp-Glu-leu-[Cys(2Lut)-Thp-Leu-Ile-Cys]-Lys(DOTA)-NH2]
B3
{DOTA-dE(AGLU)-APAc}-DW[Trp(5-Cl)][Hyp]E[dL]C[Api]([Glutaryl-NH(1-deoxy-D-glucityl)])LIC-{APAc-dE(AGLU)-NH2} (linker 7-11 via Pyridine(2,6-diCH2))
{DOTA-dE(AGLU)}-DW[Trp(5-Cl)][Hyp]E[dL]C[Thp]LIC-{APAc-dE(AGLU)-NH2} (linker 7-11 via Pyridine(2,6-diCH2)) [DOTA-glu(AGLU)-Asp-Trp-5Clw-Hyp-Glu-leu-[Cys(2Lut)-Thp-Leu-Ile-Cys]-APAc-glu(AGLU)-NH2]
{AGLU-Glutaryl-APAc}-DW[Trp(5-Cl)][Hyp]E[dL]C[Api]LIC-{APAc-dE(AGLU)-NH2} (linker 7-11 via Pyridine(2,6-diCH2); not fully specified (residue 8))
{AGLU-Glutaryl}-DW[Trp(5-Cl)][Pro(trans-4-NH2)]E[dL]C[Api](NOPO)LIC-{APAc-dE(AGLU)-NH2} (linker 7-11 via Pyridine(2,6-diCH2)) [AGLU-Glutar-Asp-Trp-5Clw-Tap-Glu-leu-[Cys(2Lut)-Apc(NOPO)-Leu-Ile-Cys]-APAc-glu(AGLU)-NH2]
{DOTA(In)-dE(AGLU)-APAc}-DW[Trp(5-Cl)][Hyp]E[dL]C[Thp]LIC-{APAc-dE(AGLU)-NH2} (linker 7-11 via Pyridine(2,6-diCH2)) [InDOTA-glu(AGLU)-APAc-Asp-Trp-5Clw-Hyp-Glu-leu-[Cys(2Lut)-Thp-Leu-Ile-Cys]-APAc-glu(AGLU)-NH2]
{EuDOTA-dGlu(AGLU)-APAc}-DW[Trp(5-Cl)][Hyp]E[dL]C[Thp]LIC-{APAc-dGlu(AGLU)-NH2} (linker 7-11 via 2Lut; reading uncertain; also: Eu complex of DOTA) [EuDOTA-glu(AGLU)-APAc-Asp-Trp-5Clw-Hyp-Glu-leu-[Cys(2Lut)-Thp-Leu-Ile-Cys]-APAc-glu(AGLU)-NH2]
